Measurements taken from paper PMC10213783, “Crystal structures of glycoprotein D of equine alphaherpesviruses reveal potential binding sites to the entry receptor MHC-I” (Frontiers in Microbiology, 2023).

T1: Recombinant equine MHC-I 3.1 (Eqca-1*00101) with the peptide SDYVKVSNI linked to β2-microglobulin (equine (horse) | horse | )
T1 chain 1: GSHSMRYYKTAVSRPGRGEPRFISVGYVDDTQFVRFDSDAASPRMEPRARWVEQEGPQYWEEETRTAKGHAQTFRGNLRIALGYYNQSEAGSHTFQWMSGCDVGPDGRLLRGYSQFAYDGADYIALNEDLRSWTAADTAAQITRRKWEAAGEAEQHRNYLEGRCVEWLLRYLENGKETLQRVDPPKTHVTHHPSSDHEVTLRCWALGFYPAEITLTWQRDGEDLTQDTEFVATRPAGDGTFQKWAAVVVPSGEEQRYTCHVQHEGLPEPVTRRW
T1 chain 2: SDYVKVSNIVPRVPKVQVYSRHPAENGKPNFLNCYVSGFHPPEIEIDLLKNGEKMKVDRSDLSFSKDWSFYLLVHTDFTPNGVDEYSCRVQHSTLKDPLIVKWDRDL

B1: C-terminally truncated EHV-4 glycoprotein D, gD4_(36-280) (domain or fragment)
chain: VVRGNQNQRPEFPPPRYNFTIVTTYNETSLPSPFINDQVKIVDVRTVAATRPCEMIALIAKTNVDSIIKELDAAHKTYSARLTWFKITPTCATPIHDVVYMKCNPKLLFGMCDERSNILWLNSLITTAAETDDELGLVLASPAHSYSGLYRRVIQIDGRRIYTDFSVTIPSSHCPLSFEQNFGNPDRCKTPEQYSRGEVYTSRFLSEFNYRQGVHLAWVKHWFVQDGGNLPVQFYEAQAFARPVP
modifications: Insect-cell N-glycosylation; disulfides C87/C209, C126/C223, C138/C147. Entity position = paper number -30. / Peptide is covalently linked to beta2m. The linker sequence is not printed (supplement) …
B2: Recombinant soluble glycoprotein D of equine herpesvirus type 1, gD1_(32-349) (domain or fragment)
chain: EKAKRAVRGRQDRPKEFPPPRYNYTILTRYNATALASPFINDQVKNVDLRIVTATRPCEMIALIAKTNIDSILKELAAAQKTYSARLTWFKIMPTCATPIHDVSYMKCNPKLSFAMCDERSDILWQASLITMAAETDDELGLVLAAPAHSASGLYRRVIEIDGRRIYTDFSVTIPSERCPIAFEQNFGNPDRCKTPEQYSRGEVFTRRFLGEFNFPQGEHMTWLKFWFVYDGGNLPVQFYEAQAFARPVPPDNHPGFDSVESEITQNKTDPKPGQADPKPNQPFKWPSIKHLAPRLDEVDEVIEPVTKPPKTSKSNSTF
modifications: N-linked glycosylation (GlcNAc) visible at N53 and N61
B3: Recombinant soluble glycoprotein D of equine herpesvirus type 4, gD4_(32-349) (domain or fragment)
chain: ENYRRVVRGNQNQRPEFPPPRYNFTIVTTYNETSLPSPFINDQVKIVDVRTVAATRPCEMIALIAKTNVDSIIKELDAAHKTYSARLTWFKITPTCATPIHDVVYMKCNPKLLFGMCDERSNILWLNSLITTAAETDDELGLVLASPAHSYSGLYRRVIQIDGRRIYTDFSVTIPSSHCPLSFEQNFGNPDRCKTPEQYSRGEVYTSRFLSEFNYRQGVHLAWVKHWFVQDGGNLPVQFYEAQAFARPVPPDNHPGFDSVESEITQNKTNPKQEQASPKPNPPFKWPSIKQLAPRIDEVDNAKEITTKKPPASNSNSTF
modifications: Insect-cell N-glycosylation; disulfides C87/C209, C126/C223, C138/C147. Entity position = paper number -30. The deposited construct starts at E31 although the text prints 32-349; TEV-His6 removed. / …

Target: T1, Recombinant equine MHC-I 3.1 …
Assay: SPR; recombinant equine MHC-I 3.1 amine-coupled to a polycarboxylate hydrogel chip HC200M; gDs injected in serial dilutions from 0 to about 10 uM, 15 min; 25°C; Biacore J; equilibrium response fitted to a 1:1 model; apparent constants
Conditions: both partners purified

Q: Which Kd does the source give for B1 here?
A: 6.7 ± 0.75 µM

Q: B2 was tested. Which Kd did it give?
A: 7 µM

Q: How did the Kd turn out when B3 was run?
A: 5.8 ± 0.76 µM
